Laboratory results taken from publication PMC11649929.

Biological target: 5*MYC-HSD17B13 (Mouse) (UniProt Q8VCR2)
Test: co-immunoprecipitation (IP: MYC) and Western blotting, band intensity
Details: HEK293T cells transfected with EGFP-Rab2A plasmids and MYC-HSD17B13; parent: 3.3

UniProt Q8VCR2, sequence (Q8VCR2 whole entry): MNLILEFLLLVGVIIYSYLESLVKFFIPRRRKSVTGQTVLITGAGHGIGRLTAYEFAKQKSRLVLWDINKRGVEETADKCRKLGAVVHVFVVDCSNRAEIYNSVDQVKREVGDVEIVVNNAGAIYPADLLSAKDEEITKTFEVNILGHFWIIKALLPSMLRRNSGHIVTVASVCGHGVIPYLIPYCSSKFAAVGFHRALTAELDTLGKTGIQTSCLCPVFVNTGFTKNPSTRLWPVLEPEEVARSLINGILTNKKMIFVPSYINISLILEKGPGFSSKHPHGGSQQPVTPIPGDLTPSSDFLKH

- response: 0.9
Substance: Rab2A, wild type, expressed from a plasmid in HEK293T cells (tag not told) (from UniProt P53994) Q32...E42-A...A
